# Measurements taken from PMC10923064.
# Legend:
# [1] = molecular target: T1, human RPA (RPA70/RPA32/RPA14) (human, UniProt P27694;P15927;P35244 1-616;1-270;1-121); assay: fluorescence anisotropy
# [2] = molecular target: T1, human RPA (RPA70/RPA32/RPA14); assay: stopped-flow Trp fluorescence
# T1 sequence (P27694 whole entry, chain 1 of 3): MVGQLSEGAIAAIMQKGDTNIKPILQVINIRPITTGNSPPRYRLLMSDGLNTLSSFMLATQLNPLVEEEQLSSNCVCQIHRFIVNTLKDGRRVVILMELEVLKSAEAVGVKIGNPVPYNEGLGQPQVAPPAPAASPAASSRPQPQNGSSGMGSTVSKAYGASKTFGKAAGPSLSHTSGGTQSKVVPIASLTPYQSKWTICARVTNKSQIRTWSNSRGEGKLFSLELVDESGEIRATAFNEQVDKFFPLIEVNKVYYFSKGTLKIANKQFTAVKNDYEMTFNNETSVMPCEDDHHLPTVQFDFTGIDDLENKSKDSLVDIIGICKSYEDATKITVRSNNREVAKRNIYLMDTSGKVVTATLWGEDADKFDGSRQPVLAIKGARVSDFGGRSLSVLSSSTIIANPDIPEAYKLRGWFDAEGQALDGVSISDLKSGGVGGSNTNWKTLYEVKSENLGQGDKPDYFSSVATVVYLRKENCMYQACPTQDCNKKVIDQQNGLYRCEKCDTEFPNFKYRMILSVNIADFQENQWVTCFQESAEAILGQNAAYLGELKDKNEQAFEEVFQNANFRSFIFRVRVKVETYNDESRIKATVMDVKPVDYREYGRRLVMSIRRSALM
# T1 sequence (P15927 whole entry, chain 2 of 3): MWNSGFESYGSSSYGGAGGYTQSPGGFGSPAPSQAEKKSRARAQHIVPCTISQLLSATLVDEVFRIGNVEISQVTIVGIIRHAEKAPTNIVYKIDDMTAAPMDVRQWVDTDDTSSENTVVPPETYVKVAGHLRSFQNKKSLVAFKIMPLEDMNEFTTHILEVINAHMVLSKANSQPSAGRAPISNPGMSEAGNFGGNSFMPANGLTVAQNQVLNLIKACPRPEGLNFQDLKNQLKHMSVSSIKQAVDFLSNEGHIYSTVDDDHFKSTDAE
# T1 sequence (P35244 whole entry, chain 3 of 3): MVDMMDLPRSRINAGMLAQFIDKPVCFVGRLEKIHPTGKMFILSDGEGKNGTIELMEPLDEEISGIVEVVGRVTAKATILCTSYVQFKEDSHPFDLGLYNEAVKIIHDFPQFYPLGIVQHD
Binder,binding result [1],binding result [2]
TTTTTTTTTTTTTTTTTTTTTTTTTTTTTTTTTTT (ssDNA) [5'-FAM-(dT)35],binds,
TTTTTTTTTTTTTTTTTTTTTTTTTTTTTTTTTTT (ssDNA) [(dT)35],,binds
